Results as given in patent US9404098, “Method for cleaving a target RNA using a Cas6 polypeptide” (University of Georgia Research Foundation, Inc.).

Tests used:
PfCas6 Y31F = biological target: T1, PfCas6 Y31F (Pyrococcus furiosus, UniProt Q8U1S4 SEQ:1-264, Y31F); experiment: cleavage_in_vitro; 500 nM; settings: tags: N-terminal 6xHis; label: 32P (5', 3' or uniform); potential weak hairpin, mostly unstructured in solution
T1 sequence: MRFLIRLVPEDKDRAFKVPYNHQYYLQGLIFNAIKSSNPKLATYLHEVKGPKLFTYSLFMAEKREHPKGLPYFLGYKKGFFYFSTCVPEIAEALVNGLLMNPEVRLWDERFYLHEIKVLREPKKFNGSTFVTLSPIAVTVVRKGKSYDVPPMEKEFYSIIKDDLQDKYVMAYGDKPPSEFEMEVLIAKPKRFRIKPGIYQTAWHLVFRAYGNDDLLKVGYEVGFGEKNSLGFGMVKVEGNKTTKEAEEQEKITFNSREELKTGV
Method: (§1) RNA-binding and cleavage reactions. RNA binding and cleavage reactions were carried out as described in example 1. Briefly, 0.05 μmol of uniformly ^32P-labeled RNA was incubated in the absence (free RNA) or presence of increasing concentrations of Cas6 (as indicated in figure legends) in buffer A for 30 minutes at 65-70° C. Half of each reaction was run on 8% native polyacrylamide gels to assess RNA binding by gel mobility shift analysis. RNA cleavage was assessed by separation of the RNAs on denaturing, 7 M urea containing, 15% polyacrylamide gels following PCI extraction and ethanol precipitation. For analysis of native Cas6 cleavage activity, either ~40 μg of whole cell extract (WCE) or supernatant from an immunoprecipitation reaction (see below) was incubated with 0.05 μmol of uniformly ^32P labeled RNA for 30 minutes at 70° C. Alternatively, 10 μL of resin from an immunoprecipitation reaction (see below) was added. In this case, samples were mixed every five minutes by pipetting up and down during the 30 minute incubation at 70° C. The gels were dried and RNAs visualized by phosphor imaging. Quantitation of cleavage was performed using ImageQuant™ TL software (GE Life Sciences).
(§2) Figure 11: FIG. 11. Cleavage activity of Cas6 mutants. […] The 5' and 3' cleavage products are indicated. (B) Purified wild type (wt) and mutant Cas6 proteins (as indicated above) were separated by SDS-PAGE. Molecular weight markers are indicated in kDa.
(§3) Mutation of any of the three triad amino acids led to a significant decrease or complete loss of cleavage activity relative to wild type Cas6 (FIG. 11A).

PfCas6 K52A = biological target: T2, PfCas6 K52A (Pyrococcus furiosus, UniProt Q8U1S4 SEQ:1-264, K52A); experiment: cleavage_in_vitro; 500 nM; settings: tags: N-terminal 6xHis; label: 32P (5', 3' or uniform); potential weak hairpin, mostly unstructured in solution
T2 sequence: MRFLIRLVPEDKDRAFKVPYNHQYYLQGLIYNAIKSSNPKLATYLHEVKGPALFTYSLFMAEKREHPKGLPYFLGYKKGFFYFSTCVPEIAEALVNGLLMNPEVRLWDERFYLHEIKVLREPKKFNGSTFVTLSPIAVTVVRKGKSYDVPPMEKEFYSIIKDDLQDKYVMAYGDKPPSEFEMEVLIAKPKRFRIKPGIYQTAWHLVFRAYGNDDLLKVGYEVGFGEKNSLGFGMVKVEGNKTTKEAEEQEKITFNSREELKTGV
Method: as §1, §2, §3

PfCas6 K52E = biological target: T3, PfCas6 K52E (Pyrococcus furiosus, UniProt Q8U1S4 SEQ:1-264, K52E); experiment: cleavage_in_vitro; 500 nM; settings: tags: N-terminal 6xHis; label: 32P (5', 3' or uniform); potential weak hairpin, mostly unstructured in solution
T3 sequence: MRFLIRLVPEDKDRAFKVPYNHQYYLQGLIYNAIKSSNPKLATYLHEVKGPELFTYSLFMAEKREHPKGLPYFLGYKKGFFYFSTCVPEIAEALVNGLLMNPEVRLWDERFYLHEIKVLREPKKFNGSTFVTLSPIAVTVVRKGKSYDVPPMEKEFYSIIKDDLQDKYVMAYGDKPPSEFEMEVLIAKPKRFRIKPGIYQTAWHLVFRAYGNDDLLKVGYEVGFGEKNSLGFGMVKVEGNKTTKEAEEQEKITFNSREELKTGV
Method: as §1, §2, §3

PfCas6 (PF1131) [1] = biological target: T4, PfCas6 (PF1131) (Pyrococcus furiosus, UniProt Q8U1S4 SEQ:1-264); experiment: footprint; nt 2-8 protected from Pb(II); nt 3, 5 and 8 from RNase A; no 3' region protection; 500 mM KCl; settings: tags: N-terminal 6xHis; label: 32P (5', 3' or uniform); potential weak hairpin, mostly unstructured in solution
T4 sequence: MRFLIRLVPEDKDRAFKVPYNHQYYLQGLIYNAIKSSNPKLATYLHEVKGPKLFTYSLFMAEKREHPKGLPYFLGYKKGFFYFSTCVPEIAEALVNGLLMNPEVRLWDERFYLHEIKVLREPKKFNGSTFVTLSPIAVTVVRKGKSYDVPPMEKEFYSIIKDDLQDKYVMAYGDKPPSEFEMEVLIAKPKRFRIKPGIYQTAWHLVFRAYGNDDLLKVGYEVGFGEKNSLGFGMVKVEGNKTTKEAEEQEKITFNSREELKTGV
Excerpt: Size markers include 5' end-labeled RNA markers (M) and alkaline hydrolysis ladders (OH). Bars along right side of each gel indicate strong protections. (B) 5' end-labeled CRISPR repeat RNA was used for lead-induced and RNase A cleavage as was done in (A). […] (C) A summary of cleavage protection is shown. The Cas6 cleavage site is indicated by an asterisk (*), and the nucleotides protected from cleavage are shown by the bars above and below the sequence FIG. 10. Lead-induced and RNase A cleavage footprinting with CRISPR repeat RNA and PfCas6. (A) 3' end labeled CRISPR repeat RNA was incubated in the absence (RNA) or presence of increasing concentrations of PfCas6 (indicated in μM) and then subjected to RNase A cleavage (left panel) or lead-induced cleavage (right panel). […] Size markers include 5' end-labeled RNA markers (M) and alkaline hydrolysis ladders (OH). Bars along right side of each gel indicate strong protections. (B) 5' end-labeled CRISPR repeat RNA was used for lead-induced and RNase A cleavage as was done in (A). […] (C) A summary of cleavage protection is shown. The Cas6 cleavage site is indicated by an asterisk (*), and the nucleotides protected from cleavage are shown by the bars above and below the sequence (SEQ ID NO: 238). Figure 10:
Specifically, nucleotides 2-8 were protected from lead induced cleavage in a Cas6 concentration dependent manner. […]

PfCas6 (PF1131) [2] = biological target: T4, PfCas6 (PF1131); experiment: EMSA; 70 C; settings: tags: N-terminal 6xHis
Method: (§4) Typically, identical reaction conditions were used to assay the ability of PfCas6 protein to bind to and to cleave substrate RNAs. These reactions were initiated by incubating 0.05 μmol of ^32P-radiolabeled RNAs (either uniformly or 5'-end-labeled) with up to 1 (as indicated in the figure legends) of PfCas6 protein in 20 mM HEPES-KOH (pH 7.0), 250 mM KCl, 0.75 mM DTT, 1.5 mM MgCl_2, 5 μg of E. coli tRNA, and 10% glycerol in a 20-μL reaction volume for 30 minutes at 70° C. Half of the reactions were directly run on native 8% polyacrylamide gels to assay RNA binding by gel mobility shift essentially as described (Baker et al., 2005. Genes & Dev. 19: 1238-1248). […] Gels were dried and the radiolabeled RNAs visualized by phosphorimaging.
Figure 4: FIG. 4. CRISPR repeat sequence requirements for PfCas6 binding. (A) Detailed analysis of binding with a series of CRISPR-derived RNAs and mutants. The left panel illustrates the RNAs tested, with repeat (R) and invader targeting (ψ) sequences, and PfCas6 cleavage site (dashed lines) indicated. The shaded portion of j denotes an insertion, dashed block denotes an internal deletion, and The shaded portions of **, e, f, and k denote substitutions (with complementary sequence). DNA indicates a DNA repeat sequence substrate. PfCas6 binding is summarized relative to binding to the 5' cleavage product (++++). Corresponding RNA diagrams and data panels are designated with lowercase letters. The right panels show gel mobility shift analysis of the indicated RNAs with increasing concentrations (0, 1, 50, 200, and 500 nM) of PfCas6. Substrates are uniformly radiolabeled except for those shown in panels a, b, c, and 1, which are 5'-end-labeled. (B) PfCas6 interacts with the gel-purified 5' cleavage product.

PfCas6 (PF1131) [3] = biological target: T4, PfCas6 (PF1131); experiment: EMSA; affinity similar to 5' cleavage product; settings: tags: N-terminal 6xHis; label: 32P
Method: as §4
(§5) Figure 4: FIG. 4. CRISPR repeat sequence requirements for PfCas6 binding. (A) Detailed analysis of binding with a series of CRISPR-derived RNAs and mutants. The left panel illustrates the RNAs tested, with repeat (R) and invader targeting (ψ) sequences, and PfCas6 cleavage site (dashed lines) indicated. The shaded portion of j denotes an insertion, dashed block denotes an internal deletion, and The shaded portions of **, e, f, and k denote substitutions (with complementary sequence). DNA indicates a DNA repeat sequence substrate. PfCas6 binding is summarized relative to binding to the 5' cleavage product (++++). […]

PfCas6 (PF1131) [4] = biological target: T4, PfCas6 (PF1131); experiment: EMSA; up to 500 nM; settings: tags: N-terminal 6xHis; label: 5' 32P
Method: as §4, §5

PfCas6 (PF1131) [5] = biological target: T4, PfCas6 (PF1131); experiment: EMSA; 0-500 nM Cas6, 70 C, 250 mM KCl, 1.5 mM MgCl2; settings: tags: N-terminal 6xHis; label: 32P uniform
Method: Figure 3: FIG. 3. Identification of the site of PfCas6 cleavage within the CRISPR repeat RNA. (A) The site of PfCas6 cleavage within the CRISPR repeat RNA was mapped by incubating 5' end labeled repeat RNA with PfCas6 nuclease and comparing the size of the 5' RNA cleavage product (arrow) with RNAse T1 (T1) and alkaline hydrolysis (OH) sequence ladders. (B) Potential secondary structure of P. furiosus repeat RNA (SEQ ID No: 238) with cleavage site indicated. (C) Analysis of cleavage of wild-type and cleavage site mutant (AA to GG) repeat RNAs with increasing concentrations (0, 1, 50, 200, and 500 nM) of PfCas6. (D) Native gel mobility shift analysis of wild-type and mutant repeat RNAs with increasing concentrations of PfCas6. The positions of the free (RNA) and protein-bound (RNP) RNAs are indicated. 5' and 3' cleavage products are indicated in both C and D. The sizes of RNA markers (M) are indicated in A and C.
Typically, identical reaction conditions were used to assay the ability of PfCas6 protein to bind to and to cleave substrate RNAs. These reactions were initiated by incubating 0.05 μmol of ^32P-radiolabeled RNAs (either uniformly or 5'-end-labeled) with up to 1 (as indicated in the figure legends) of PfCas6 protein in 20 mM HEPES-KOH (pH 7.0), 250 mM KCl, 0.75 mM DTT, 1.5 mM MgCl_2, 5 μg of E. coli tRNA, and 10% glycerol in a 20-μL reaction volume for 30 minutes at 70° C. […]

PfCas6 (PF1131) [6] = biological target: T4, PfCas6 (PF1131); experiment: EMSA; binding to the 5' cleavage product formed during incubation; settings: tags: N-terminal 6xHis; label: 32P 5' or uniform
Method: as §4, §5

PfCas6 (PF1131) [7] = biological target: T4, PfCas6 (PF1131); experiment: EMSA; gel-purified; up to 500 nM; settings: tags: N-terminal 6xHis; label: 32P uniform
Method: as §4, §5

PfCas6 (PF1131) [8] = biological target: T4, PfCas6 (PF1131); experiment: EMSA; binding abolished; up to 500 nM; settings: tags: N-terminal 6xHis; label: 32P uniform
Method: as §4, §5

B1: CRISPR repeat RNA (ssRNA)
RNA: GUUACAAUAAGACCAAAAUAGAAUUGAAAG
PfCas6 Y31F
  activity: ~2 fold reduction vs wild type
PfCas6 K52A
  activity: > 40 fold reduction vs wild type
PfCas6 K52E
  activity: > 150 fold reduction vs wild type
PfCas6 (PF1131) [1]
  binding result: binds

B2: sub. 23-30 (ssRNA)
RNA: GGGUUACAAUAAGACCAAAAUAGAAAACUUUC
PfCas6 (PF1131) [2]; label: 32P uniform
  binding result: binds

B3: del. 23-30 (ssRNA)
RNA: GGGUUACAAUAAGACCAAAAUAG
PfCas6 (PF1131) [2]; label: 32P uniform
  binding result: binds

B4: repeat nt 1-12 (ssRNA)
RNA: GUUACAAUAAGA
PfCas6 (PF1131) [3]
  binding result: binds

B5: DNA repeat (ssDNA)
DNA: GTTACAATAAGACCAAAATAGAATTGAAAG
modifications: [none]
PfCas6 (PF1131) [4]
  binding result: no binding

B6: AA to GG cleavage site mutant repeat (ssRNA)
RNA: GGGUUACAAUAAGACCAAAAUAGGGUUGAAAG
PfCas6 (PF1131) [5]
  binding result: binds

B7: repeat-guide-repeat (R-g-R) (ssRNA)
RNA: GGGUUCCAAUAAGACUACAAAAGAAUUGAAAGUUGUAGUAUGCGGUCCUUGCGGCUGAGAGCACUUCAGGUUCCAAUAAGACUACCAAAAGAAUUGAAAG
PfCas6 (PF1131) [6]
  binding result: binds

B8: 3' cleavage product (repeat nt 23-30) (ssRNA)
RNA: AUUGAAAG
PfCas6 (PF1131) [7]
  binding result: no binding

B9: last 8 nt of repeat + guide (ssRNA)
RNA: AUUGAAAGUUGUAGUAUGCGGUCCUUGCGGCUGAGAGCACUUCAG
PfCas6 (PF1131) [4]
  binding result: no binding

B10: guide + first part of repeat (panel c) (ssRNA)
RNA: GGGAUUGAAAGUUGUAGUAUGCGGUCCUUGCGGCUGAGAGCACUUCAGGUUACAAUAAGACCAAAAUAGA
PfCas6 (PF1131) [2]; label: 5' 32P
  binding result: binds

B11: del. 1-8 (ssRNA)
RNA: GGGAAGACCAAAAUAGAAUUGAAAG
PfCas6 (PF1131) [8]
  binding result: no binding

B12: sub. 1-8 (ssRNA)
RNA: GGGCAAUGUUAAAGACCAAAAUAGAAUUGAAAG
PfCas6 (PF1131) [8]
  binding result: no binding
